The values that follow come from IntAct's records for PubMed 25910212.

Sequences and labels used below:
B1: Complement factor H-related protein 5 (Homo sapiens), Q9BXR6 (parent)
chain: MLLLFSVILISWVSTVGGEGTLCDFPKIHHGFLYDEEDYNPFSQVPTGEVFYYSCEYNFVSPSKSFWTRITCTEEGWSPTPKCLRMCSFPFVKNGHSESSGLIHLEGDTVQIICNTGYSLQNNEKNISCVERGWSTPPICSFTKGECHVPILEANVDAQPKKESYKVGDVLKFSCRKNLIRVGSDSVQCYQFGWSPNFPTCKGQVRSCGPPPQLSNGEVKEIRKEEYGHNEVVEYDCNPNFIINGPKKIQCVDGEWTTLPTCVEQVKTCGYIPELEYGYVQPSVPPYQHGVSVEVNCRNEYAMIGNNMITCINGIWTELPMCVATHQLKRCKIAGVNIKTLLKLSGKEFNHNSRIRYRCSDIFRYRHSVCINGKWNPEVDCTEKREQFCPPPPQIPNAQNMTTTVNYQDGEKVAVLCKENYLLPEAKEIVCKDGRWQSLPRCVESTAYCGPPPSINNGDTTSFPLSVYPPGSTVTYRCQSFYKLQGSVTVTCRNKQWSEPPRCLDPCVVSEENMNKNNIQLKWRNDGKLYAKTGDAVEFQCKFPHKAMISSPPFRAICQEGKFEYPICE
partner: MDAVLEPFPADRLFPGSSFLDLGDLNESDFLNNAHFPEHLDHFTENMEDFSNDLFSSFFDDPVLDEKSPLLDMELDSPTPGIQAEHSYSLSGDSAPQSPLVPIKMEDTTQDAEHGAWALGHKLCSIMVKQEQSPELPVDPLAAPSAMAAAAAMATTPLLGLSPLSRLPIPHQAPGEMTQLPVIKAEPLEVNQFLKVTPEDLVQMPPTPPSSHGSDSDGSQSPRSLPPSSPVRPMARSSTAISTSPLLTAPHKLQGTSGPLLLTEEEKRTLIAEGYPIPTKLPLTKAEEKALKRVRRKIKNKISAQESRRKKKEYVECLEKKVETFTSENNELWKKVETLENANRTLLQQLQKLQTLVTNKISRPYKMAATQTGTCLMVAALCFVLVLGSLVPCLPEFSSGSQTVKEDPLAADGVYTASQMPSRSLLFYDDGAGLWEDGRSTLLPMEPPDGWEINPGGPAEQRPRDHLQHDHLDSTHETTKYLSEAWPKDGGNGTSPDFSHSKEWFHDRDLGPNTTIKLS
B2: Torsin-1A (Homo sapiens), O14656 (parent)
chain: MKLGRAVLGLLLLAPSVVQAVEPISLGLALAGVLTGYIYPRLYCLFAECCGQKRSLSREALQKDLDDNLFGQHLAKKIILNAVFGFINNPKPKKPLTLSLHGWTGTGKNFVSKIIAENIYEGGLNSDYVHLFVATLHFPHASNITLYKDQLQLWIRGNVSACARSIFIFDEMDKMHAGLIDAIKPFLDYYDLVDGVSYQKAMFIFLSNAGAERITDVALDFWRSGKQREDIKLKDIEHALSVSVFNNKNSGFWHSSLIDRNLIDYFVPFLPLEYKHLKMCIRVEMQSRGYEIDEDIVSRVAEEMTFFPKEERVFSDKGCKTVFTKLDYYYDD
partner: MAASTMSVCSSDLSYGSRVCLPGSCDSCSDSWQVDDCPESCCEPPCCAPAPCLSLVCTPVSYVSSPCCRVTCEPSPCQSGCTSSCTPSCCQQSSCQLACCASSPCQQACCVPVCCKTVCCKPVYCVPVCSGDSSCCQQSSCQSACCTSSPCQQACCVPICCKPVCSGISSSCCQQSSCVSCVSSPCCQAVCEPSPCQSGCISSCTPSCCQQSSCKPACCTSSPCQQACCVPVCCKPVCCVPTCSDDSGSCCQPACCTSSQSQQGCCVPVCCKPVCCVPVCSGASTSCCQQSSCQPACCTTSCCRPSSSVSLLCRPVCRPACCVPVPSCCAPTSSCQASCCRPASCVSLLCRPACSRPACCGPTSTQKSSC
B3: Progranulin (Homo sapiens), P28799 (parent)
chain: MWTLVSWVALTAGLVAGTRCPDGQFCPVACCLDPGGASYSCCRPLLDKWPTTLSRHLGGPCQVDAHCSAGHSCIFTVSGTSSCCPFPEAVACGDGHHCCPRGFHCSADGRSCFQRSGNNSVGAIQCPDSQFECPDFSTCCVMVDGSWGCCPMPQASCCEDRVHCCPHGAFCDLVHTRCITPTGTHPLAKKLPAQRTNRAVALSSSVMCPDARSRCPDGSTCCELPSGKYGCCPMPNATCCSDHLHCCPQDTVCDLIQSKCLSKENATTDLLTKLPAHTVGDVKCDMEVSCPDGYTCCRLQSGAWGCCPFTQAVCCEDHIHCCPAGFTCDTQKGTCEQGPHQVPWMEKAPAHLSLPDPQALKRDVPCDNVSSCPSSDTCCQLTSGEWGCCPIPEAVCCSDHQHCCPQGYTCVAEGQCQRGSEIVAGLEKMPARRASLSHPRDIGCDQHTSCPVGQTCCPSLGGSWACCQLPHAVCCEDRQHCCPAGYTCNVKARSCEKEVVSAQPATFLARSPHVGVKDVECGEGHFCHDNQTCCRDNRQGWACCPYRQGVCCADRRHCCPAGFRCAARGTKCLRREAPRWDAPLRDPALRQLL
partner: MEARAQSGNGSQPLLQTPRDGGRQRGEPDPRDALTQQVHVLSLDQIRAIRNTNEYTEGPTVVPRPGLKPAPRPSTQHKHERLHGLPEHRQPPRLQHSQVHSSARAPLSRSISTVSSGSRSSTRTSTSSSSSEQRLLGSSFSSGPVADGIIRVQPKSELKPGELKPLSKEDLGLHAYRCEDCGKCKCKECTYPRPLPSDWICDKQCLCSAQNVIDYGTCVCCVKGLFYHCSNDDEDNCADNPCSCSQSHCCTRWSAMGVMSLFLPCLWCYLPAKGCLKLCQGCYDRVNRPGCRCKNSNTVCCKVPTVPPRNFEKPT
B4: Myelin proteolipid protein (Homo sapiens), P60201-2 (parent)
chain: MGLLECCARCLVGAPFASLVATGLCFFGVALFCGCGHEALTGTEKLIETYFSKNYQDYEYLINVIHAFQYVIYGTASFFFLYGALLLAEGFYTTGAVRQIFGDYKTTICGKGLSATFVGITYALTVVWLLVFACSAVPVYIYFNTWTTCQSIAFPSKTSASIGSLCADARMYGVLPWNAFPGKVCGSNLLSICKTAEFQMTFHLFIAAFVGAAATLVSLLTFMIAATYNFAVLKLMGRGTKF
partner: B1 partner
B5: Claudin-19 (Homo sapiens), Q8N6F1-2 (parent)
chain: MANSGLQLLGYFLALGGWVGIIASTALPQWKQSSYAGDAIITAVGLYEGLWMSCASQSTGQVQCKLYDSLLALDGHIQSARALMVVAVLLGFVAMVLSVVGMKCTRVGDSNPIAKGRVAIAGGALFILAGLCTLTAVSWYATLVTQEFFNPSTPVNARYEFGPALFVGWASAGLAVLGGSFLCCTCPEPERPNSSPQPYRPGPSAAAREYV
partner: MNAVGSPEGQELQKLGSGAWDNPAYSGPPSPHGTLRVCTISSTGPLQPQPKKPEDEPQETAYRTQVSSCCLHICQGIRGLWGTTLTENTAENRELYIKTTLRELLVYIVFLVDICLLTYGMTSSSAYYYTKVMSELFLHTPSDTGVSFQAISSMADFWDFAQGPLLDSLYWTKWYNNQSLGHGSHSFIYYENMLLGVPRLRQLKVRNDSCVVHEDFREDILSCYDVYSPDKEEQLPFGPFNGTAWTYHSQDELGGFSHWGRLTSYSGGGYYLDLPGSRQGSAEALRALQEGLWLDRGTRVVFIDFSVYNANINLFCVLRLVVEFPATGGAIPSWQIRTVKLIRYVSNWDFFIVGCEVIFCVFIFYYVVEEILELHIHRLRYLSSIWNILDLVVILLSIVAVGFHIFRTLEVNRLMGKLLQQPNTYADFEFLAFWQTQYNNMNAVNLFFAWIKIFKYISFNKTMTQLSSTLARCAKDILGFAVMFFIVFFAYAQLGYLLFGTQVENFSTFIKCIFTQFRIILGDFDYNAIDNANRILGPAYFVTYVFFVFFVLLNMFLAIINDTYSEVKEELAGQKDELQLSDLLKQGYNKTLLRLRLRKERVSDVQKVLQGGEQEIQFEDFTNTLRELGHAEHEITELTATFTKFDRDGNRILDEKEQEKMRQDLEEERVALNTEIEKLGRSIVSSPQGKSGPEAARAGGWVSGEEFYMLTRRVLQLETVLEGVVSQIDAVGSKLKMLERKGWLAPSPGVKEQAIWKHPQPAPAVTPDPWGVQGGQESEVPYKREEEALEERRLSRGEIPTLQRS
B6: Cytochrome P450 1A1 (Homo sapiens), P04798 (parent)
chain: MLFPISMSATEFLLASVIFCLVFWVIRASRPQVPKGLKNPPGPWGWPLIGHMLTLGKNPHLALSRMSQQYGDVLQIRIGSTPVVVLSGLDTIRQALVRQGDDFKGRPDLYTFTLISNGQSMSFSPDSGPVWAARRRLAQNGLKSFSIASDPASSTSCYLEEHVSKEAEVLISTLQELMAGPGHFNPYRYVVVSVTNVICAICFGRRYDHNHQELLSLVNLNNNFGEVVGSGNPADFIPILRYLPNPSLNAFKDLNEKFYSFMQKMVKEHYKTFEKGHIRDITDSLIEHCQEKQLDENANVQLSDEKIINIVLDLFGAGFDTVTTAISWSLMYLVMNPRVQRKIQEELDTVIGRSRRPRLSDRSHLPYMEAFILETFRHSSFVPFTIPHSTTRDTSLKGFYIPKGRCVFVNQWQINHDQKLWVNPSEFLPERFLTPDGAIDKVLSEKVIIFGMGKRKCIGETIARWEVFLFLAILLQRVEFSVPLGVKVDMTPIYGLTMKHACCEHFQMQLRS
B7: EF-hand domain-containing protein 1 (Homo sapiens), Q5JVL4 (parent)
chain: MVSNPVHGLPFLPGTSFKDSTKTAFHRSQTLSYRNGYAIVRRPTVGIGGDRLQFNQLSQAELDELASKAPVLTYGQPKQAPPADFIPAHVAFDKKVLKFDAYFQEDVPMSTEEQYRIRQVNIYYYLEDDSMSVIEPVVENSGILQGKLIKRQRLAKNDRGDHYHWKDLNRGINITIYGKTFRVVDCDQFTQVFLESQGIELNPPEKMALDPYTELRKQPLRKYVTPSDFDQLKQFLTFDKQVLRFYAIWDDTDSMYGECRTYIIHYYLMDDTVEIREVHERNDGRDPFPLLMNRQRVPKVLVENAKNFPQCVLEISDQEVLEWYTAKDFIVGKSLTILGRTFFIYDCDPFTRRYYKEKFGITDLPRIDVSKREPPPVKQELPPYNGFGLVEDSAQNCFALIPKAPKKDVIKMLVNDNKVLRYLAVLESPIPEDKDRRFVFSYFLATDMISIFEPPVRNSGIIGGKYLGRTKVVKPYSTVDNPVYYGPSDFFIGAVIEVFGHRFIILDTDEYVLKYMESNAAQYSPEALASIQNHVRKREAPAPEAESKQTEKDPGVQELEALIDTIQKQLKDHSCKDNIREAFQIYDKEASGYVDRDMFFKICESLNVPVDDSLVKELIRMCSHGEGKINYYNFVRAFSN
partner: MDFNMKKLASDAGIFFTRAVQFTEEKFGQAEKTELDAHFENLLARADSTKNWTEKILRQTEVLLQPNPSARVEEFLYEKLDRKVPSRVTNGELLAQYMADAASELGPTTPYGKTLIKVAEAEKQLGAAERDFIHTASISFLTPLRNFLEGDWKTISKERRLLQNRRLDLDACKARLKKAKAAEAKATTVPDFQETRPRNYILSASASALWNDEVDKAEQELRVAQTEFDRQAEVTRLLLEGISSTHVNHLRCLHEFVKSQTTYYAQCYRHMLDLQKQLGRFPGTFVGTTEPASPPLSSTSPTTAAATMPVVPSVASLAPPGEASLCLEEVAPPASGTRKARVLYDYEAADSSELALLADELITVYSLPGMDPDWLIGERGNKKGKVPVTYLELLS

Variants of B1 are the subject of the first assay. The note with it: with cr3l1_human CREB3L1, Q96BA8.
With P46S, the “effect of a mutation on the interaction” value is “with no effect”.

As to F192L, the “effect of a mutation on the interaction” value is recorded as “with no effect”.

In a further assay the parent is B2. The following applies: with kr107_human KRTAP10-7, P60409.
D216H: the “effect of a mutation on the interaction” value was “with no effect”. On to R288Q, for which the “effect of a mutation on the interaction” value was “with no effect”.

Another assay covers variants of B3. The following applies: with spy2_human SPRY2, O43597.
Turning to R432C, the “effect of a mutation on the interaction” value was “disrupting interaction strength”. Still for that read-out and setting: the value for P248L was “with no effect”; that for P451L was “disrupting interaction strength”; that for A9D was “disrupting interaction strength”.

In another assay the parent is B4. The note with it: with cr3l1_human CREB3L1, Q96BA8.
With L87P, the “effect of a mutation on the interaction” value is given as “disrupting interaction strength”. Take W128L: the “effect of a mutation on the interaction” value is on record as “disrupting interaction strength”. P15L: the “effect of a mutation on the interaction” value is “disrupting interaction strength”.

As for A213E, the “effect of a mutation on the interaction” value was “disrupting interaction strength”.

Another assay covers variants of B5. The note with it: with pk2l1_human PKD2L1, Q9P0L9.
In the case of L90P, the “effect of a mutation on the interaction” value is reported as “disrupting interaction strength”.

In the case of R200Q, the “effect of a mutation on the interaction” value is on record as “with no effect”. In the case of G20D, the “effect of a mutation on the interaction” value is “disrupting interaction strength”.

Variants of B6 are the subject of a further assay. The following applies: with CMTM5, Q96DZ9-2.
CMTM5, Q96DZ9-2, sequence (Q96DZ9 other isoform, or with tags, fused parts or gaps): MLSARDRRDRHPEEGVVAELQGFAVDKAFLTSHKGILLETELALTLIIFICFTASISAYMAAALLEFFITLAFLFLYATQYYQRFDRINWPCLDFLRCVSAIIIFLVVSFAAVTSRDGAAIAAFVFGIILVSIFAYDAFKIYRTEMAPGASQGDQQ
With T461N, the “effect of a mutation on the interaction” value was “with no effect”. Consider I462V, for which the “effect of a mutation on the interaction” value is reported as “with no effect”.

Variants of B7 are the subject of another assay. The note with it: with shlb2_human SH3GLB2, Q9NR46.
Regarding A394S, the “effect of a mutation on the interaction” value is reported as “disrupting interaction strength”. Still for that read-out and setting: under R221H stands “disrupting interaction strength”; under P77T, “disrupting interaction strength”.
